The results in this text go back to article PMC10439073.

Some targets named below: US-bevacizumab (human); EU-bevacizumab (human); BAT1706 (human).
Holding throughout (test): SPR

“FcγRIIIa-158F (from UniProt P08637 17-208) (receptor)”: the figures for the Kd in the experiment with US-bevacizumab (human), with EU-bevacizumab (human) and with BAT1706 (human) were 983 nM, 951 nM and 769 nM, respectively.
